{"source": "paper PMC8694081", "about": "(Molecular Biology of the Cell, 2021)", "key": {"ubiquitin [1]": {"target": "T1, ubiquitin (UniProt P0CG48 1-76)", "assay": "NMR titration"}, "ubiquitin [2]": {"target": "T1, ubiquitin", "assay": "NMR HSQC peak broadening and PRE"}, "ubiquitin [3]": {"target": "T1, ubiquitin", "assay": "NMR HSQC peak broadening and PRE", "remark": "listed apart in the source"}}, "note": "Like-named read-outs stand apart in the source and are kept apart here."}
{"binder": "HD-PTP V domain (residues 361-711), wild type (domain or fragment) VPMAAHEASSLYSEEKAKLLREMMAKIEDKNEVLDQFMDSMQLDPETVDNLDAYSHIPPQLMEKCAALSVRPDTVRNLVQSMQVLSGVFTDVEASLKDIRDLLEEDELLEQKFQEAVGQAGAISITSKAELAEVRREWAKYMEVHEKASFTNSELHRAMNLHVGNLRLLSGPLDQVRAALPTPALSPEDKAVLQNLKRILAKVQEMRDQRVSLEQQLRELIQKDDITASLVTTDHSEMKKLFEEQLKKYDQLKVYLEQNLAAQDRVLCALTEANVQYAAVRRVLSDLDQKWNSTLQTLVASYEAYEDLMKKSQEGRDFYADLESKVAALLERTQSTCQAREAARQQLLDRE", "values": [{"measurement": "Kd", "setting": "ubiquitin [1]", "value": "~31", "unit": "µM"}]}
{"binder": "HD-PTP V domain Site1∆ (L371A, E374A, E375A) (domain or fragment) VPMAAHEASSAYSAAKAKLLREMMAKIEDKNEVLDQFMDSMQLDPETVDNLDAYSHIPPQLMEKCAALSVRPDTVRNLVQSMQVLSGVFTDVEASLKDIRDLLEEDELLEQKFQEAVGQAGAISITSKAELAEVRREWAKYMEVHEKASFTNSELHRAMNLHVGNLRLLSGPLDQVRAALPTPALSPEDKAVLQNLKRILAKVQEMRDQRVSLEQQLRELIQKDDITASLVTTDHSEMKKLFEEQLKKYDQLKVYLEQNLAAQDRVLCALTEANVQYAAVRRVLSDLDQKWNSTLQTLVASYEAYEDLMKKSQEGRDFYADLESKVAALLERTQSTCQAREAARQQLLDRE", "values": [{"measurement": "Kd", "setting": "ubiquitin [1]", "value": 900, "unit": "µM"}]}
{"binder": "HD-PTP V domain Site2∆ (E388A, D389A), single spin label at residue 368 (domain or fragment, MTSL spin label on cysteine 368) VPMAAHECSSLYSEEKAKLLREMMAKIAAKNEVLDQFMDSMQLDPETVDNLDAYSHIPPQLMEKAAALSVRPDTVRNLVQSMQVLSGVFTDVEASLKDIRDLLEEDELLEQKFQEAVGQAGAISITSKAELAEVRREWAKYMEVHEKASFTNSELHRAMNLHVGNLRLLSGPLDQVRAALPTPALSPEDKAVLQNLKRILAKVQEMRDQRVSLEQQLRELIQKDDITASLVTTDHSEMKKLFEEQLKKYDQLKVYLEQNLAAQDRVLAALTEANVQYAAVRRVLSDLDQKWNSTLQTLVASYEAYEDLMKKSQEGRDFYADLESKVAALLERTQSTAQAREAARQQLLDRE", "values": [{"measurement": "binding result", "setting": "ubiquitin [2]", "value": "binds"}]}
{"binder": "HD-PTP V domain Site2∆ (E388A, D389A), single spin label at residue 400 (S400) (domain or fragment, MTSL spin label on cysteine 400) VPMAAHEASSLYSEEKAKLLREMMAKIAAKNEVLDQFMDCMQLDPETVDNLDAYSHIPPQLMEKAAALSVRPDTVRNLVQSMQVLSGVFTDVEASLKDIRDLLEEDELLEQKFQEAVGQAGAISITSKAELAEVRREWAKYMEVHEKASFTNSELHRAMNLHVGNLRLLSGPLDQVRAALPTPALSPEDKAVLQNLKRILAKVQEMRDQRVSLEQQLRELIQKDDITASLVTTDHSEMKKLFEEQLKKYDQLKVYLEQNLAAQDRVLAALTEANVQYAAVRRVLSDLDQKWNSTLQTLVASYEAYEDLMKKSQEGRDFYADLESKVAALLERTQSTAQAREAARQQLLDRE", "values": [{"measurement": "binding result", "setting": "ubiquitin [2]", "value": "binds"}]}
{"binder": "HD-PTP V domain lacking cysteine residues (C425A, C628A, C697A) (domain or fragment) VPMAAHEASSLYSEEKAKLLREMMAKIEDKNEVLDQFMDSMQLDPETVDNLDAYSHIPPQLMEKAAALSVRPDTVRNLVQSMQVLSGVFTDVEASLKDIRDLLEEDELLEQKFQEAVGQAGAISITSKAELAEVRREWAKYMEVHEKASFTNSELHRAMNLHVGNLRLLSGPLDQVRAALPTPALSPEDKAVLQNLKRILAKVQEMRDQRVSLEQQLRELIQKDDITASLVTTDHSEMKKLFEEQLKKYDQLKVYLEQNLAAQDRVLAALTEANVQYAAVRRVLSDLDQKWNSTLQTLVASYEAYEDLMKKSQEGRDFYADLESKVAALLERTQSTAQAREAARQQLLDRE", "values": [{"measurement": "binding result", "setting": "ubiquitin [3]", "value": "binds"}]}
{"binder": "HD-PTP V domain, no-Cys, S400C, MTSL-labelled (domain or fragment, MTSL spin label on cysteine 400) VPMAAHEASSLYSEEKAKLLREMMAKIEDKNEVLDQFMDCMQLDPETVDNLDAYSHIPPQLMEKAAALSVRPDTVRNLVQSMQVLSGVFTDVEASLKDIRDLLEEDELLEQKFQEAVGQAGAISITSKAELAEVRREWAKYMEVHEKASFTNSELHRAMNLHVGNLRLLSGPLDQVRAALPTPALSPEDKAVLQNLKRILAKVQEMRDQRVSLEQQLRELIQKDDITASLVTTDHSEMKKLFEEQLKKYDQLKVYLEQNLAAQDRVLAALTEANVQYAAVRRVLSDLDQKWNSTLQTLVASYEAYEDLMKKSQEGRDFYADLESKVAALLERTQSTAQAREAARQQLLDRE", "values": [{"measurement": "binding result", "setting": "ubiquitin [3]", "value": "binds"}]}
{"binder": "HD-PTP V domain, no-Cys, single cysteine at 368 (A368C), MTSL-labelled (domain or fragment, MTSL spin label on cysteine 368) VPMAAHECSSLYSEEKAKLLREMMAKIEDKNEVLDQFMDSMQLDPETVDNLDAYSHIPPQLMEKAAALSVRPDTVRNLVQSMQVLSGVFTDVEASLKDIRDLLEEDELLEQKFQEAVGQAGAISITSKAELAEVRREWAKYMEVHEKASFTNSELHRAMNLHVGNLRLLSGPLDQVRAALPTPALSPEDKAVLQNLKRILAKVQEMRDQRVSLEQQLRELIQKDDITASLVTTDHSEMKKLFEEQLKKYDQLKVYLEQNLAAQDRVLAALTEANVQYAAVRRVLSDLDQKWNSTLQTLVASYEAYEDLMKKSQEGRDFYADLESKVAALLERTQSTAQAREAARQQLLDRE", "values": [{"measurement": "binding result", "setting": "ubiquitin [3]", "value": "binds"}]}
